These results are taken from patent US20110014182A1 (published 2011).

As a reminder, the IC50 is the midpoint of a concentration-inhibition curve. Low readings indicate higher potency, high ones lower potency. By Kd is commonly meant the equilibrium constant for the complex coming apart.

Assay [1] addresses T1, human β-amyloid (1-40) peptide (human, UniProt P05067 672-711).
T1 construct: domain: β-amyloid (1-40); Used free in solution, coated on plates, or N- or C-terminally biotinylated, as told under assay; also called Aβ peptide (1-40); Aβ1-40
The assay can be described thus: competition ELISA, antibody pre-incubated with biotinylated β-amyloid 1-40; competitor immobilised mouse 6F6; Exp 2. The protocol: (§1) 6F6c and humanised antibodies H11L2, H11L9, H11L10, H11L12 and H11L13 were assessed for their ability to bind Aβ1-40 peptide in solution and inhibit the interaction of human Aβ1-40 peptide with mouse 6F6 monoclonal antibody in a competition ELISA. A constant concentration of biotinylated β-amyloid 1-40 was pre-incubated with serial diluted amounts of humanised 6F6 antibody variants. The mixture including complexed and free amyloid was then added to wells containing immobilised mouse 6F6 monoclonal antibody and incubated for 15 minutes at room temperature. Plates were washed and the amount of free β-amyloid that was still available for binding the immobilised parental 6F6 monoclonal antibody was then detected using streptavidin-HRP conjugate.
(§2) All humanised variants were able to effectively compete for binding to 6F6 parental monoclonal antibody with very similar IC50 values.
A general note: ELISA stands for enzyme-linked immunosorbent assay.

Assay [2] addresses T1, human β-amyloid (1-40) peptide. As to the kind of experiment: competition ELISA, antibody pre-incubated with biotinylated β-amyloid 1-40; competitor immobilised mouse 6F6; Exp 1. The protocol:
as §1, §2

The target is the same in assay [3]. As to the kind of experiment: SPR (Biacore T100), antibody captured on protein A, human β-amyloid 1-40 at 256-2 nM, 25°C, mean of three experiments. The protocol: The affinity of selected heavy and light chain combinations was determined using a Biacore T100 instrument. Three independent experiments were performed using humanised antibody immobilised via protein A surface Biacore chips and injection of β-amyloid 1-40 peptides. The chimeric molecule of 6F6 served as a reference molecule. For this Protein A was immobilised on a CM5 chip by primary amine coupling in accordance with manufactures recommendations. Anti-β-amyloid antibodies were captured on this surface and after a period of stabilisation human β-amyloid 1-40 was passed over at concentrations 256-2 nM in halving dilutions. A buffer injection over the captured antibody surface was used to double reference the data set in accordance with Biacore best practice. […] The work was carried out in HBS-EP at 25° C. Results are summarised in Table 13 as the mean of all three experiments.

For assay [4] the target is unchanged. The assay can be described thus: ELISA on human Aβ peptide (1-40).
The target is the same in assay [5]. As to the kind of experiment: ELISA on human Aβ peptide (1-40), in combination with H11.

T1 sequence (P05067 672-711 limits assumed): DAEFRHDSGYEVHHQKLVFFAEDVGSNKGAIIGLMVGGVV

B1: humanised antibody H11L2 (antibody, human IgG1, kappa, name in Kabat numbering)
heavy: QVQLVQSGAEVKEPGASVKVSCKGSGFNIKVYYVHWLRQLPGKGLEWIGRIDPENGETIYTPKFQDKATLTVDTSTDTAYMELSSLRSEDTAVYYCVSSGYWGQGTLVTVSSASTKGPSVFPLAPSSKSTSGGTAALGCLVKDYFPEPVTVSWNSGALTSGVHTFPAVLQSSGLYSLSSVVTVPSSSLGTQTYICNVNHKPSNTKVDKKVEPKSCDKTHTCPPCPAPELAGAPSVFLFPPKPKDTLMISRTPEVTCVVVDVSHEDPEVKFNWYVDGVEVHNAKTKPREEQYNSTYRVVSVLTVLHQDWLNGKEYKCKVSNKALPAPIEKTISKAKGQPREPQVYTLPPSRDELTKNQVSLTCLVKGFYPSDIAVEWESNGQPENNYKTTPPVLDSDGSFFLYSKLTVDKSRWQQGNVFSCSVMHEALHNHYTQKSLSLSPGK
light: DIVMTQSPLSLPVTPGEPASISCRSSKSLLHRNGITYLYWYLQKPGQSPQLLIYQMSNLASGVPDRFSSSGSGTDFTLKISRVEAEDVGVYYCAQNLELWTFGQGTKVEIKRTVAAPSVFIFPPSDEQLKSGTASVVCLLNNFYPREAKVQWKVDNALQSGNSQESVTEQDSKDSTYSLSSTLTLSKADYEKHKVYACEVTHQGLSSPVTKSFNRGEC
notes: Human IgG1 Fc mutated, human kappa
With B1, the half-inhibitory concentration (IC50) in assay [1] came to 0.578 mg/L; in assay [2], 0.862 mg/L. Moreover, in assay [3], the Kd was 9.57 nM.

B2: humanised VH variant H29 in combination with L2 light chain (antibody, human IgG1, kappa, name in Kabat numbering)
heavy: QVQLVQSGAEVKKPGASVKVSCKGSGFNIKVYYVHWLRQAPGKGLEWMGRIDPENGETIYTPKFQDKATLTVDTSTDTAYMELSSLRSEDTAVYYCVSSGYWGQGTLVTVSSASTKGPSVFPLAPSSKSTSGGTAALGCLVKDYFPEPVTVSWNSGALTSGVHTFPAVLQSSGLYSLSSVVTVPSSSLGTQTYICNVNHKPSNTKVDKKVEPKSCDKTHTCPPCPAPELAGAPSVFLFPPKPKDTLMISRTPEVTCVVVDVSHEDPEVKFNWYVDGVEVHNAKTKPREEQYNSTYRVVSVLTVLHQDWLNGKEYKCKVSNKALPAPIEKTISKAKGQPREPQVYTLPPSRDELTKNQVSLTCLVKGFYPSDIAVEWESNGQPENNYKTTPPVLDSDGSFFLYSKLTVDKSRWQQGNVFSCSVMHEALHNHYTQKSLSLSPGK
light: DIVMTQSPLSLPVTPGEPASISCRSSKSLLHRNGITYLYWYLQKPGQSPQLLIYQMSNLASGVPDRFSSSGSGTDFTLKISRVEAEDVGVYYCAQNLELWTFGQGTKVEIKRTVAAPSVFIFPPSDEQLKSGTASVVCLLNNFYPREAKVQWKVDNALQSGNSQESVTEQDSKDSTYSLSSTLTLSKADYEKHKVYACEVTHQGLSSPVTKSFNRGEC
notes: Kabat numbering
Regarding B2, the binding result in assay [4] is “binds”.

B3: humanised VH variant H23 in combination with L2 light chain (antibody, human IgG1, kappa, name in Kabat numbering, V domains shown)
VH: QVQLVQSGAEVKKPGASVKVSCKGSGFNIKVYYVHWLRQAPGKGLEWIGRIDPENGETIYTPKFQDRVTMTEDTSTDTAYMELSSLRSEDTAVYYCVSSGYWGQGTLVTVSS
VL: DIVMTQSPLSLPVTPGEPASISCRSSKSLLHRNGITYLYWYLQKPGQSPQLLIYQMSNLASGVPDRFSSSGSGTDFTLKISRVEAEDVGVYYCAQNLELWTFGQGTKVEIKR
notes: Kabat numbering
As for B3, the binding result in assay [4] is “binds”.

B4: humanised VL variant L6 in combination with H11 (antibody, human IgG1, kappa, name in Kabat numbering)
heavy: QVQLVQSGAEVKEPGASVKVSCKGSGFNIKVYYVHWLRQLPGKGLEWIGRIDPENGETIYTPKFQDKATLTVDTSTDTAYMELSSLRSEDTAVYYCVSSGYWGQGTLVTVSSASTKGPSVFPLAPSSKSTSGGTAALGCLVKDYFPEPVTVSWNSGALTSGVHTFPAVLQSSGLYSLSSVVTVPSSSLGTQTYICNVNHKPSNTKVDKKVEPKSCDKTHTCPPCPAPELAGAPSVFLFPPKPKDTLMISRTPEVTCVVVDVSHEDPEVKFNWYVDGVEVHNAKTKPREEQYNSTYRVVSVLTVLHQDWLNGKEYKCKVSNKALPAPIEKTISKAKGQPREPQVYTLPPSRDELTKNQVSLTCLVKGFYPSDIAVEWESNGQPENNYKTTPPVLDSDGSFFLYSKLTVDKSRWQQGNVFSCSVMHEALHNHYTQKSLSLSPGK
light: DIVMTQSPLSLPVTPGEPASISCRSSKSLLHRNGITYLYWYLQKPGQPPQLLIYQMSNLASGVPDRFTGSGSGTDFTLKISRVEAEDVGVYYCAQNLELWTFGGGTKLEIKRTVAAPSVFIFPPSDEQLKSGTASVVCLLNNFYPREAKVQWKVDNALQSGNSQESVTEQDSKDSTYSLSSTLTLSKADYEKHKVYACEVTHQGLSSPVTKSFNRGEC
notes: Kabat numbering
For B4, the binding result in assay [5] was “binds”.

B5: humanised VH variant H21 in combination with L2 light chain (antibody, human IgG1, kappa, name in Kabat numbering, V domains shown)
VH: QVQLVQSGAEVKKPGASVKVSCKGSGFNIKVYYVHWLRQLPGKGLEWMGRIDPENGETIYTPKFQDRVTMTEDTSTDTAYMELSSLRSEDTAVYYCVSSGYWGQGTLVTVSS
VL: DIVMTQSPLSLPVTPGEPASISCRSSKSLLHRNGITYLYWYLQKPGQSPQLLIYQMSNLASGVPDRFSSSGSGTDFTLKISRVEAEDVGVYYCAQNLELWTFGQGTKVEIKR
As to B5, the binding result in assay [4] was “binds”.

B6: humanised VH variant H28 in combination with L2 light chain (antibody, human IgG1, kappa, name in Kabat numbering)
heavy: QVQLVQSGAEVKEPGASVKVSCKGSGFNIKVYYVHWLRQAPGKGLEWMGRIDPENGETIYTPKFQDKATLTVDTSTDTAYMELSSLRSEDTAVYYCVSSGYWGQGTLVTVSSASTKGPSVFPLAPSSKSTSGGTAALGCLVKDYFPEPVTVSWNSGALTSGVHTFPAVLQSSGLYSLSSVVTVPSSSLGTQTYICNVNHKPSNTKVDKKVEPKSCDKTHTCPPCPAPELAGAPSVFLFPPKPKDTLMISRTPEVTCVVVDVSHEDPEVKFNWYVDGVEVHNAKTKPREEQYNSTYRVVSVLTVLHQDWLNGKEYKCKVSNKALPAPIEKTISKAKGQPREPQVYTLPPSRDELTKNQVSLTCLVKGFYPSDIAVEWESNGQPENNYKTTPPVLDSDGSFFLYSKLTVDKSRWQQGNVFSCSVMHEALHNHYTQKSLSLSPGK
light: DIVMTQSPLSLPVTPGEPASISCRSSKSLLHRNGITYLYWYLQKPGQSPQLLIYQMSNLASGVPDRFSSSGSGTDFTLKISRVEAEDVGVYYCAQNLELWTFGQGTKVEIKRTVAAPSVFIFPPSDEQLKSGTASVVCLLNNFYPREAKVQWKVDNALQSGNSQESVTEQDSKDSTYSLSSTLTLSKADYEKHKVYACEVTHQGLSSPVTKSFNRGEC
notes: Kabat numbering
With B6, in assay [4], the binding result is recorded as “binds”.

B7: humanised VH variant H26 in combination with L2 light chain (antibody, human IgG1, kappa, name in Kabat numbering, V domains shown)
VH: QVQLVQSGAEVKKPGASVKVSCKGSGFNIKVYYVHWLRQAPGKGLEWIGRIDPENGETIYTPKFQDRVTLTEDTSSDTAYMELSSLRSEDTAVYYCVSSGYWGQGTLVTVSS
VL: DIVMTQSPLSLPVTPGEPASISCRSSKSLLHRNGITYLYWYLQKPGQSPQLLIYQMSNLASGVPDRFSSSGSGTDFTLKISRVEAEDVGVYYCAQNLELWTFGQGTKVEIKR
notes: Kabat numbering
With B7, the binding result in assay [4] is recorded as “binds”.

B8: humanised antibody H11L13 (antibody, human IgG1, kappa, name in Kabat numbering)
heavy: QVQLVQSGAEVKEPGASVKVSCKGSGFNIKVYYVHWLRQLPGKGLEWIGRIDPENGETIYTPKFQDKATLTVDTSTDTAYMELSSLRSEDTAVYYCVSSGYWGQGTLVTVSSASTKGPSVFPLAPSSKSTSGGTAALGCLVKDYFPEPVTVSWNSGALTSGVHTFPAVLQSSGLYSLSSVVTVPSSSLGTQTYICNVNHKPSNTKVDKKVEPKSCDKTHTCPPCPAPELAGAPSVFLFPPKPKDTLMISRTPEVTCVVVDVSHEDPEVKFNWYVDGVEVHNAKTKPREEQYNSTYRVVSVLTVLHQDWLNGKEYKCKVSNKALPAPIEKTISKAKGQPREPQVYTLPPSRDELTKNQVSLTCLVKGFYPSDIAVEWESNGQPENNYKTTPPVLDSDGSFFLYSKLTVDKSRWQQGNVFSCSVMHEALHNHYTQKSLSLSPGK
light: DIVMTQSALSLPVTPGEPASISCRSSKSLLHRNGITYLYWYLQKPGQPPQLLIYQMSNLASGVPDRFSGSGSGTDFTLKISRVEAEDVGVYYCAQNLELWTFGQGTKVEIKRTVAAPSVFIFPPSDEQLKSGTASVVCLLNNFYPREAKVQWKVDNALQSGNSQESVTEQDSKDSTYSLSSTLTLSKADYEKHKVYACEVTHQGLSSPVTKSFNRGEC
As to B8, the IC50 in assay [1] was found to be 0.531 mg/L; in assay [2], 0.616 mg/L. The Kd in assay [3] was determined as 7.41 nM.

B9: humanised VH variant H24 in combination with L2 light chain (antibody, human IgG1, kappa, name in Kabat numbering, V domains shown)
VH: QVQLVQSGAEVKKPGASVKVSCKGSGFNIKVYYVHWLRQAPGKGLEWMGRIDPENGETIYTPKFQDRVTMTEDTSSNTAYMELSSLRSEDTAVYYCVSSGYWGQGTLVTVSS
VL: DIVMTQSPLSLPVTPGEPASISCRSSKSLLHRNGITYLYWYLQKPGQSPQLLIYQMSNLASGVPDRFSSSGSGTDFTLKISRVEAEDVGVYYCAQNLELWTFGQGTKVEIKR
notes: Kabat numbering
As to B9, the binding result in assay [4] is reported as “binds”.

B10: humanised antibody H11L12 (antibody, human IgG1, kappa, name in Kabat numbering)
heavy: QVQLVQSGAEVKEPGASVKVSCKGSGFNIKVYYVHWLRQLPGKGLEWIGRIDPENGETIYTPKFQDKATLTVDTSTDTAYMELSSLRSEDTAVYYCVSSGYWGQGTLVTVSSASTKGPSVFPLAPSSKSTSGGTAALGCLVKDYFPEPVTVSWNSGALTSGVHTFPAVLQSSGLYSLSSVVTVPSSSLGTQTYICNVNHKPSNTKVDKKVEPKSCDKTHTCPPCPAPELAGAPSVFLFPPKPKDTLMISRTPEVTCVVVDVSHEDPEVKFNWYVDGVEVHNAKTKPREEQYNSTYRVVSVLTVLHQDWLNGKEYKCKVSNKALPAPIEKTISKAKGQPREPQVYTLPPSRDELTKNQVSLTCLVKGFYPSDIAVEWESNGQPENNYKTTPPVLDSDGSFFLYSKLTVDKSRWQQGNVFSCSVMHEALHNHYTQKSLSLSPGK
light: DIVMTQSPLSNPVTPGEPASISCRSSKSLLHRNGITYLYWYLQKPGQPPQLLIYQMSNLASGVPDRFSGSGSGTDFTLKISRVEAEDVGVYYCAQNLELWTFGQGTKVEIKRTVAAPSVFIFPPSDEQLKSGTASVVCLLNNFYPREAKVQWKVDNALQSGNSQESVTEQDSKDSTYSLSSTLTLSKADYEKHKVYACEVTHQGLSSPVTKSFNRGEC
Take B10: the results for the IC50 in assay [1] and in assay [2] were 0.549 mg/L and 0.561 mg/L, respectively. For the same molecule, in assay [3], the dissociation constant Kd turned out to be 6.95 nM.

B11: humanised VH variant H27 in combination with L2 light chain (antibody, human IgG1, kappa, name in Kabat numbering, V domains shown)
VH: QVQLVQSGAEVKEPGASVKVSCKGSGFNIKVYYVHWLRQAPGKGLEWMGRIDPENGETIYTPKFQDKATMTVDTSTDTAYMELSSLRSEDTAVYYCVSSGYWGQGTLVTVSS
VL: DIVMTQSPLSLPVTPGEPASISCRSSKSLLHRNGITYLYWYLQKPGQSPQLLIYQMSNLASGVPDRFSSSGSGTDFTLKISRVEAEDVGVYYCAQNLELWTFGQGTKVEIKR
notes: Kabat numbering
With B11, the binding result in assay [4] is recorded as “binds”.

B12: humanised VL variant L7 in combination with H11 (antibody, human IgG1, kappa, name in Kabat numbering, V domains shown)
VH: QVQLVQSGAEVKEPGASVKVSCKGSGFNIKVYYVHWLRQLPGKGLEWIGRIDPENGETIYTPKFQDKATLTVDTSTDTAYMELSSLRSEDTAVYYCVSSGYWGQGTLVTVSS
VL: DIVMTQSPLSLPVTPGEPASISCRSSKSLLHRNGITYLYWYLQKPGQPPQLLIYQMSNLASGVPDRFSSSGSGTDFTLKISRVEAEDVGVYYCAQNLELWTFGQGTKVEIKR
notes: Kabat numbering
With B12, in assay [5], the binding result is listed as “binds”.

B13: humanised VL variant L8 in combination with H11 (antibody, human IgG1, kappa, name in Kabat numbering)
heavy: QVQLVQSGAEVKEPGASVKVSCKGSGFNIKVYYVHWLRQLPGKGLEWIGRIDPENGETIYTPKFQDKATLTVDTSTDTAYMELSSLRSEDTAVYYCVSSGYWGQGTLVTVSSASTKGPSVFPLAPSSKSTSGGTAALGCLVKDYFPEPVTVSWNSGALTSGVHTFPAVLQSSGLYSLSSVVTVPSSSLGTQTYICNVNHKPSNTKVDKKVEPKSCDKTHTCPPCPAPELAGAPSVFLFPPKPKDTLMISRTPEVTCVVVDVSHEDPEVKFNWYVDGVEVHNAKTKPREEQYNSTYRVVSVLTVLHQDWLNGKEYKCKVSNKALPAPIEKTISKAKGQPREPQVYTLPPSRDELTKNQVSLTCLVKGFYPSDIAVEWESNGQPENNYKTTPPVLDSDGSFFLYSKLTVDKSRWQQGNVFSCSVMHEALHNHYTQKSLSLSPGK
light: DIVMTQSPLSLPVTPGEPASISCRSSKSLLHRNGITYLYWYLQKPGQPPQLLIYQMSNLASGVPDRFTGSGSGTDFTLKISRVEAEDVGVYYCAQNLELWTFGQGTKVEIKRTVAAPSVFIFPPSDEQLKSGTASVVCLLNNFYPREAKVQWKVDNALQSGNSQESVTEQDSKDSTYSLSSTLTLSKADYEKHKVYACEVTHQGLSSPVTKSFNRGEC
notes: Kabat numbering
In the case of B13, the binding result in assay [5] is given as “binds”.

B14: humanised antibody H11L10 (antibody, human IgG1, kappa, name in Kabat numbering)
heavy: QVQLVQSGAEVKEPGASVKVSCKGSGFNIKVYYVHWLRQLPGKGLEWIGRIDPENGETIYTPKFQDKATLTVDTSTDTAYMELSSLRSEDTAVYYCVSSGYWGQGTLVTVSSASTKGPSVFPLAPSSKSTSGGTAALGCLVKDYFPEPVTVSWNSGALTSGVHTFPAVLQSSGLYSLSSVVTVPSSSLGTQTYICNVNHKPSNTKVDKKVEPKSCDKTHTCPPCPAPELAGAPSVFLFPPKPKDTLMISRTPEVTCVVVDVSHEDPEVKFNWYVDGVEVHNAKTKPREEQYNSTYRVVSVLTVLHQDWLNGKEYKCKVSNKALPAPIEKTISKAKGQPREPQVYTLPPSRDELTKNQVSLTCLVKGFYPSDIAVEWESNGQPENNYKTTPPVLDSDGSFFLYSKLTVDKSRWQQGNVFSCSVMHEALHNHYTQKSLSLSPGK
light: DIVMTQSALSLPVTPGEPASISCRSSKSLLHRNGITYLYWYLQKPGQSPQLLIYQMSNLASGVPDRFSSSGSGTDFTLKISRVEAEDVGVYYCAQNLELWTFGQGTKVEIKRTVAAPSVFIFPPSDEQLKSGTASVVCLLNNFYPREAKVQWKVDNALQSGNSQESVTEQDSKDSTYSLSSTLTLSKADYEKHKVYACEVTHQGLSSPVTKSFNRGEC
On to B14, for which, in assay [2], the IC50 came out at 0.622 mg/L. In addition, in assay [3], the Kd turned out to be 5.57 nM.

B15: humanised VH variant H25 in combination with L2 light chain (antibody, human IgG1, kappa, name in Kabat numbering, V domains shown)
VH: QVQLVQSGAEVKKPGASVKVSCKGSGFNIKVYYVHWLRQAPGKGLEWIGRIDPENGETIYTPKFQDRVTLTEDTSTDTAYMELSSLRSEDTAVYYCVSSGYWGQGTLVTVSS
VL: DIVMTQSPLSLPVTPGEPASISCRSSKSLLHRNGITYLYWYLQKPGQSPQLLIYQMSNLASGVPDRFSSSGSGTDFTLKISRVEAEDVGVYYCAQNLELWTFGQGTKVEIKR
notes: Kabat numbering
As for B15, the binding result in assay [4] is “binds”.

B16: humanised VL variant L4 in combination with H11 (antibody, human IgG1, kappa, name in Kabat numbering, V domains shown)
VH: QVQLVQSGAEVKEPGASVKVSCKGSGFNIKVYYVHWLRQLPGKGLEWIGRIDPENGETIYTPKFQDKATLTVDTSTDTAYMELSSLRSEDTAVYYCVSSGYWGQGTLVTVSS
VL: DIVMTQSPLSLPVTPGEPASISCRSSKSLLHRNGITYLYWYLQKPGQSPQLLIYQMSNLASGVPDRFTGSGSGTDFTLKISRVEAEDVGVYYCAQNLELWTFGQGTKVEIKR
notes: Kabat numbering
With B16, the binding result in assay [5] is on record as “binds”.
